This passage reports EC50 and Maximum luminescence (RLU) results from patent US20250289888A1.

Targets include mouse FcγRIV (mouse); human FcγRIIb (human) (UniProt P31994); mouse FcγRIII (mouse) (UniProt P08508).
What all share (experiment): cell-based or functional assay
In test [1] the target is human FcγRIIa, H variant (human) (UniProt P12318).
The target in test [2] is human FcγRIIa, R variant (human) (UniProt P12318).
human FcγRIIa, R variant (human), sequence (P12318 other isoform, or with tags, fused parts or gaps mutant limits assumed): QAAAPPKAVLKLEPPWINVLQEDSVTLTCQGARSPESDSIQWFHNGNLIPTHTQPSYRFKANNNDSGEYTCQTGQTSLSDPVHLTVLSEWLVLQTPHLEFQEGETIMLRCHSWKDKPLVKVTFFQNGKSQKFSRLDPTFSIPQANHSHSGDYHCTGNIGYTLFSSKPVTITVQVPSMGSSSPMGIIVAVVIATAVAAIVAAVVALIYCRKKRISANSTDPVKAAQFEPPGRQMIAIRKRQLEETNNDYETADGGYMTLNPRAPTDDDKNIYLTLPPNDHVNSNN

human FcγRIIa, H variant (human), sequence (P12318 34-317, change not shown): as the sequence (P12318 other isoform, or with tags, fused parts or gaps mutant limits assumed) above, with R134H counted along it
mouse FcγRIV (mouse), sequence (A0A0B4J1G0 21-203): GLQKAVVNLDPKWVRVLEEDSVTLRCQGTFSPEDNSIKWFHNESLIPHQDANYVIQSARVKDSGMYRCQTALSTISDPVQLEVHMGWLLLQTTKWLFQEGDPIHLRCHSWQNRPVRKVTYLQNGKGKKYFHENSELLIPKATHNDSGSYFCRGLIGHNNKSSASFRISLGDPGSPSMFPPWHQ
human FcγRIIb (human), sequence (P31994 43-310): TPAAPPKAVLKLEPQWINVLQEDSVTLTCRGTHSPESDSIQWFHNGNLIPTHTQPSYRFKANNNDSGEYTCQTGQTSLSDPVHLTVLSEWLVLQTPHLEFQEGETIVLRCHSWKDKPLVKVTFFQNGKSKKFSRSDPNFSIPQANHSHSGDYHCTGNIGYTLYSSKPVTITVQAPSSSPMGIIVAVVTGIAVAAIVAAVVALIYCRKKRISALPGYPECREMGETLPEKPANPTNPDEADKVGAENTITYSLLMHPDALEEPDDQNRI
mouse FcγRIII (mouse), sequence (P08508 31-261): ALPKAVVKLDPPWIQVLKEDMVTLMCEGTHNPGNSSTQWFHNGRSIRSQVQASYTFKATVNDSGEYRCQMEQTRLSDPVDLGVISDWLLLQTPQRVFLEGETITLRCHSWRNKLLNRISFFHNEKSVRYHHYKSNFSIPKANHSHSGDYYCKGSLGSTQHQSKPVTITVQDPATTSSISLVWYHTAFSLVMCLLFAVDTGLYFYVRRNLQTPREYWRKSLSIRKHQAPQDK

With Ipilimumab (antibody), the EC50 was 2.21 µg/mL with mouse FcγRIV (mouse), 0.17 µg/mL in the test with human FcγRIIb (human), 0.05 µg/mL in test [1] and 0.21 µg/mL in test [2]. Further, the Maximum luminescence (RLU) in the test with mouse FcγRIV (mouse) is 990 RLU; with human FcγRIIb (human), 5800 RLU; in test [1] it was 973 RLU; in test [2] it was 2640 RLU; with mouse FcγRIII (mouse), 17500 RLU.
